First the molecules themselves.
B1: recombinant engineered AgRP peptide 6C (FLAG and hexahistidine tagged) (peptide)
chain: DYKDDDDKGCVRLHESCLGQQVPCCDPAATCYCTGRGDEKLRCYCRHHHHHH
B2: recombinant engineered AgRP peptide 7J (FLAG and hexahistidine tagged) (peptide)
chain: B1 chain with T34E, E39R, K40D, L41M, R42K
notes: also called 7J (6B); 6B
B3: recombinant engineered AgRP peptide 7E (FLAG and hexahistidine tagged) (peptide)
chain: B1 chain with T34V, E39D, K40N, R42K
B4: Miniprotein 2.5F (synthetic, soluble) (peptide)
chain: GCPRPRGDNPPLTCSQDSDCLAGCVCGPNGFCG
notes: also called knottin peptide 2.5F; RGD-miniprotein 2.5F

We go through 32 molecules from patent US20210023171A1 (published 2021).

Numbering of substitutions follows the chain as printed. No end group written: not given here.

The first assay deals with T1, αvβ3 integrin on cells (U87MG glioblastoma cells; K562-αvβ3 cells) (UniProt P06756 31-1048; P05106 27-788). The assay is described as follows: cell-based or functional assay.
T1 sequence (P06756 31-1048, chain 1 of 2): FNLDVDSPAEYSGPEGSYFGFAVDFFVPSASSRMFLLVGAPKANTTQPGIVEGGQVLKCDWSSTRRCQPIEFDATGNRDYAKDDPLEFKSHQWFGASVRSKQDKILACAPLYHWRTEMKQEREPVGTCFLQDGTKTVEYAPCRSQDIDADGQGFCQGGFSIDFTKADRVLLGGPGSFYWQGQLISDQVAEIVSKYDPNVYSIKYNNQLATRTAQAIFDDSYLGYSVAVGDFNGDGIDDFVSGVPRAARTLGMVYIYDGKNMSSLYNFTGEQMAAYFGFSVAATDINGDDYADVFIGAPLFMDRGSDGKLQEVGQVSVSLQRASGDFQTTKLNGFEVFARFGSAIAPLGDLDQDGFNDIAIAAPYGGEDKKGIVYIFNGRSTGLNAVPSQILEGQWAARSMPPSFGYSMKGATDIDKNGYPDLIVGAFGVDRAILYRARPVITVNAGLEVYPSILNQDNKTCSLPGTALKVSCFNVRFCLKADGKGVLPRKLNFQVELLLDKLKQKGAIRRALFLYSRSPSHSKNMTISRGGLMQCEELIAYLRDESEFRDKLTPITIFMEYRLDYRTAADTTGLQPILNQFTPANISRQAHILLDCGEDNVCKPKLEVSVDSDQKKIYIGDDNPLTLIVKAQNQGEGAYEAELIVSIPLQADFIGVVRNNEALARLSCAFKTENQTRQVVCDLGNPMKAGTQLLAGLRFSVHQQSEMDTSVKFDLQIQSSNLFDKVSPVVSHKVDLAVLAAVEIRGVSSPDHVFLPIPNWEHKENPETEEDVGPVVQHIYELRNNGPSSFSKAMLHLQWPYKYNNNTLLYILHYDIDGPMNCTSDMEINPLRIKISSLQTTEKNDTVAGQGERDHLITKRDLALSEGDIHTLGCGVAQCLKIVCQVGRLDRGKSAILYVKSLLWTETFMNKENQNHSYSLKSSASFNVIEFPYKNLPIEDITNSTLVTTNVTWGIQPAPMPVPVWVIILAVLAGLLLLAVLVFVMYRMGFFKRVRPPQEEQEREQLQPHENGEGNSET
T1 sequence (P05106 27-788, chain 2 of 2): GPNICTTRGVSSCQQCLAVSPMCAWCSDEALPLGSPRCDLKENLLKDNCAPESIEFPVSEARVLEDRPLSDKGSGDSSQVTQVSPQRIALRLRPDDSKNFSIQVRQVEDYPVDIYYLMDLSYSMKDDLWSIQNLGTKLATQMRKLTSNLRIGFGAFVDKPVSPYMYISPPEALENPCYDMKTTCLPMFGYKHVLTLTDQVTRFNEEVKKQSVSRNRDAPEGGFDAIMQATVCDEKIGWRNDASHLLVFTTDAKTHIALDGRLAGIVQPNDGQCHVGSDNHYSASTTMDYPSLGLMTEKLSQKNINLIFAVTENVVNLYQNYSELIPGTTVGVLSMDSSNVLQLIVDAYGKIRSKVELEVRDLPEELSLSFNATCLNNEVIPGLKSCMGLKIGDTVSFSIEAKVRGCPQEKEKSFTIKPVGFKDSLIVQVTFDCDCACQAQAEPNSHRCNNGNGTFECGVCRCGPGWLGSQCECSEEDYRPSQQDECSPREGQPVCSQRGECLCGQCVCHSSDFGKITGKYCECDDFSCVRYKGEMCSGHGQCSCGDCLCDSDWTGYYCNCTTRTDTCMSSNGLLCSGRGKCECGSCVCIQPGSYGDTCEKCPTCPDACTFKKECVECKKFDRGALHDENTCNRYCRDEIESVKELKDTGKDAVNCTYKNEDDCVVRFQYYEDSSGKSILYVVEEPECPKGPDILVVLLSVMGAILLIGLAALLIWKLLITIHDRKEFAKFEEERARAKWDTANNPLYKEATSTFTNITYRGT
For B1, the “adhesion (IC50; nM) of K562-αvβ3 cells to vitronectin-coated wells” value amounted to 650 nM. With B2, the “adhesion (IC50; nM) of K562-αvβ3 cells to vitronectin-coated wells” value was determined as 200 nM. On the same count and under the same terms, the same measure for B3: 9.9 nM.

The target of another assay is T1, αvβ3 integrin on cells (U87MG …). The assay is described as follows: competing off ^125I-echistatin, U87MG cells.
Turning to GCVRLHESCLGQQVPCCDPAATCYCESRGDVVRKCYCR (ends and bridges not checked; cysteine pairing not given here) [6F (synthesized Mini-RGD-AgRP peptide)], the IC50 (usually the midpoint of a concentration-inhibition curve) stood at 410 nM. The same measure, in the same setting: the same measure for GCVRLHESCLGQQVPCCDPAATCYCVERGDGNRRCYCR (ends and bridges not checked; cysteine pairing not given here) [6E (synthesized Mini-RGD-AgRP peptide)]: 130 nM. Same read-out and setting: the value for GCVRLHESCLGQQVPCCDPAATCYCQYRGDGMKHCYCR (ends and bridges not checked; cysteine pairing not given here) [3F (synthesized Mini-RGD-AgRP peptide)] was 880 nM.

Another assay deals with αvβ5 integrin (soluble / detergent-solubilized) (UniProt P06756 31-1048; P18084 24-799). The assay is described as follows: yeast display, flow cytometry. For orientation: In flow cytometry, cells or beads pass a laser one at a time.
Chain of αvβ5 integrin (soluble / detergent-solubilized) (P06756 31-1048, chain 1 of 2): as the sequence (P06756 31-1048, chain 1 of 2) above
Chain of αvβ5 integrin (soluble / detergent-solubilized) (P18084 24-799, chain 2 of 2): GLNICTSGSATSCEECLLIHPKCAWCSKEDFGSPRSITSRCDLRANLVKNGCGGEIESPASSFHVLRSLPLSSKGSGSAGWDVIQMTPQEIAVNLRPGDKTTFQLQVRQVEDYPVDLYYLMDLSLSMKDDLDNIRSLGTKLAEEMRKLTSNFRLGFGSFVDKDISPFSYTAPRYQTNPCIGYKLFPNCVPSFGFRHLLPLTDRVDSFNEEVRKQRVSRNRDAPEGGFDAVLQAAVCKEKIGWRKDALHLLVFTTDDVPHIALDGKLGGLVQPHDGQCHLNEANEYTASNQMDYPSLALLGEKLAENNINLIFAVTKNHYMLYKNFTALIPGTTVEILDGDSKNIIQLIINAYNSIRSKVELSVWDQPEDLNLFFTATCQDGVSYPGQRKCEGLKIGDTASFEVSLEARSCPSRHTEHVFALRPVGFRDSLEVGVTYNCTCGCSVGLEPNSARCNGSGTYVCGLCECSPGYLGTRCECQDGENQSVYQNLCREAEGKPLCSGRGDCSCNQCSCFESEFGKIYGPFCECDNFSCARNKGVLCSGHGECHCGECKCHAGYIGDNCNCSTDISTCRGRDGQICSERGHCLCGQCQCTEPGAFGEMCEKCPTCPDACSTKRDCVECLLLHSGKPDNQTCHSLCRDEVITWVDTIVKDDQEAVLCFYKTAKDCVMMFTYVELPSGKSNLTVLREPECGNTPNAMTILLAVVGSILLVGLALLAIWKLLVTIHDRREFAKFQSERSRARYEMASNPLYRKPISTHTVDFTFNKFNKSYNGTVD
Regarding GCVRLHESCEWGRGGDCCDPAATCYCYGRGDNDLRCYCR (ends and bridges not checked; cysteine pairing not given here) [AgRP 7C loop 2 clone 2-4 (yeast-displayed)], the binding result is on record as “no binding (tested: 50 nM)”.

Regarding GCRPLGDAGCLGQQVPCCDPAATCYCYGRGDNDLRCYCR (ends and bridges not checked; cysteine pairing not given here) [AgRP 7C loop 1 clone 1-2 (yeast-displayed)], the binding result is listed as “no binding (tested: 50 nM)”. Consider GCDLYGSHDCLGQQVPCCDPAATCYCYGRGDNDLRCYCR (ends and bridges not checked; cysteine pairing not given here) [AgRP 7C loop 1 clone 1-6 (yeast-displayed)], for which the binding result was “no binding (tested: 50 nM)”. Same read-out and setting: the same measure for GCVRLHESCADTLMAACCDPAATCYCYGRGDNDLRCYCR (ends and bridges not checked; cysteine pairing not given here) [AgRP 7C loop 2 clone 2-3 (yeast-displayed)]: “no binding (tested: 50 nM)”; for GCRSASVGGCLGQQVPCCDPAATCYCYGRGDNDLRCYCR (ends and bridges not checked; cysteine pairing not given here) [AgRP 7C loop 1 clone 1-4 (yeast-displayed)]: “no binding (tested: 50 nM)”; for GCVRLHESCLGQQVPCCQGREQSCYCYGRGDNDLRCYCR [AgRP 7C loop 3 clone 3-4 (yeast-displayed)]: “no binding (tested: 50 nM)”. Consider GCVRLHESCLGQQVPCCSRSDAHCYCYGRGDNDLRCYCR (ends and bridges not checked; cysteine pairing not given here) [AgRP 7C loop 3 clone 3-2 (yeast-displayed)], for which the binding result is recorded as “no binding (tested: 50 nM)”. Still for that read-out and setting: the value for GCLAGLSGPCLGQQVPCCDPAATCYCYGRGDNDLRCYCR (ends and bridges not checked; cysteine pairing not given here) [AgRP 7C loop 1 clone 1-3 (yeast-displayed)] was “no binding (tested: 50 nM)”; that for GCVRLHESCGGSVGVECCDPAATCYCYGRGDNDLRCYCR (ends and bridges not checked; cysteine pairing not given here) [AgRP 7C loop 2 clone 2-1 (yeast-displayed)] was “no binding (tested: 50 nM)”; that for GCVRLHESCDPRVGVRCCDPAATCYCYGRGDNDLRCYCR (ends and bridges not checked; cysteine pairing not given here) [AgRP 7C loop 2 clone 2-2 (yeast-displayed)] was “no binding (tested: 50 nM)”. Still for that read-out and setting: the value for GCVRLHESCLGQQVPCCGTPKPECYCYGRGDNDLRCYCR (ends and bridges not checked; cysteine pairing not given here) [AgRP 7C loop 3 clone 3-1 (yeast-displayed)] was “no binding (tested: 50 nM)”; that for GCVRLHESCLGQQVPCCTVTNSRCYCYGRGDNDLRCYCR [AgRP 7C loop 3 clone 3-5 (yeast-displayed)] was “no binding (tested: 50 nM)”; that for GCIASGLFGCLGQQVPCCDPAATCYCYGRGDNDLRCYCR (ends and bridges not checked; cysteine pairing not given here) [AgRP 7C loop 1 clone 1-5 (yeast-displayed)] was “no binding (tested: 50 nM)”. Same read-out and setting: the value for GCVRLHESCWGSILGHCCDPAATCYCYGRGDNDLRCYCR (ends and bridges not checked; cysteine pairing not given here) [AgRP 7C loop 2 clone 2-6 (yeast-displayed)] was “no binding (tested: 50 nM)”. GCVRLHESCGSWGTLACCDPAATCYCYGRGDNDLRCYCR (ends and bridges not checked; cysteine pairing not given here) [AgRP 7C loop 2 clone 2-5 (yeast-displayed)]: the binding result is “no binding (tested: 50 nM)”.

For GCASGSGDPCLGQQVPCCDPAATCYCYGRGDNDLRCYCR (ends and bridges not checked; cysteine pairing not given here) [AgRP 7C loop 1 clone 1-1 (yeast-displayed)], the binding result is given as “no binding (tested: 50 nM)”. Consider GCVRLHESCLGQQVPCCSGLGNRCYCYGRGDNDLRCYCR (ends and bridges not checked; cysteine pairing not given here) [AgRP 7C loop 3 clone 3-3 (yeast-displayed)], for which the binding result was “no binding (tested: 50 nM)”. On the same count and under the same terms, the value for GCVRLHESCLGQQVPCCTSKQHHCYCYGRGDNDLRCYCR [AgRP 7C loop 3 clone 3-6 (yeast-displayed)] was “no binding (tested: 50 nM)”.

The target in another assay is T1, αvβ3 integrin on cells (U87MG …). The assay is described as follows: competition with ^125I-echistatin on U87MG cells; Cy5.5-labeled peptide.
Take {Cy5.5}-GCPQGRGDWAPTSCSQDSDCRAGCVCGPNGFCG (cysteine pairing not given here) [Cy5.5-labeled Miniprotein 2.5D]: the IC50 amounted to 4.2 nM. Same read-out and setting: the same measure for {Cy5.5}-GCPRPRGDNPPLTCSQDSDCLAGCVCGPNGFCG (cysteine pairing not given here) [Cy5.5-labeled Miniprotein 2.5F]: 3.4 nM. Same read-out and setting: the same measure for {Cy5.5}-GCVTGRGDSPASSCSQDSDCLAGCVCGPNGFCG (cysteine pairing not given here, also called Cy5.5-labeled FN-RGD) [Cy5.5-labeled loop-grafted FN-RGD]: 33.9 nM; for {Cy5.5}-GCTIGRGDWAPSECSQDSDCLAGCVCGPNGFCG (cysteine pairing not given here) [Cy5.5-labeled Miniprotein 1.5B]: 6.4 nM. In the case of QCESGPCCRNCKFLKEGTICKRARGDDMDDYCNGKTCDCPRNPHKGPAT (ligand, ends and bridges not checked; also: Cy5.5-labeled, site not given here) [Cy5.5-labeled echistatin], the IC50 was 2.6 nM. Compared with the last molecule, the IC50 is about 2.5-fold lower.

Another assay has as its target T2, αiibβ3 integrin on K562 cells stably transfected with αiibβ3 (UniProt P08514 32-1039; P05106 27-788).
T2 construct: whole, on cells; also called K562-αiibβ3; K562-αiiβ3
The assay is described as follows: titration on K562-αiibβ3 cells up to 5 µM, not saturated.
With B1, the Kd (as a rule, the equilibrium constant for the complex coming apart) is greater than 100 nM. Still for that read-out and setting: the value for B2 was greater than 100 nM; that for B3 was greater than 100 nM.

The target in a further assay is T1, αvβ3 integrin on cells (U87MG …). The assay is described as follows: direct equilibrium titration on U87MG cells, anti-His flow cytometry.
For the molecule B1, the affinity, expressed as Kd, was 13 nM. Still for that read-out and setting: the value for B2 was 8.3 nM. The same measure, in the same setting: the same measure for B3: 1.4 nM.

The target is the same in the next assay. The assay is described as follows: direct equilibrium titration on K562-αvβ3 cells, anti-His flow cytometry.
In turn, B1 gave a dissociation constant (Kd) of 15 nM. Still for that read-out and setting: the same measure for B2: 16 nM; for B3: 1.6 nM.

For another assay the target is unchanged. The assay is described as follows: competition with ^125I-echistatin on U87MG cells (also express αvβ5, α5β1); unlabeled peptide.
As for GCTIGRGDWAPSECSQDSDCLAGCVCGPNGFCG (also called RGD-miniprotein 1.5B) [Miniprotein 1.5B (synthetic, soluble)], the IC50 is 13 nM. That is a double-digit nanomolar value. Take GCVTGRGDSPASSCSQDSDCLAGCVCGPNGFCG (also called FN-RGD2; RGD-EETI #3) [Loop-grafted FN-RGD (synthetic, soluble)]: the IC50 came out at 370 nM. Compared with the last molecule, the IC50 is about 28-fold higher. For B4, the IC50 was 26 nM.
